Test results published in paper doi:10.1101/292672.

Target: SARS-CoV S 2P ectodomain (SARS-CoV (Tor2 strain)) (UniProt P59594)
Assay: cryo-EM structure

For “SARS-CoV S 2P ectodomain (from UniProt P59594 14-1190) (domain or fragment)”, the stoichiometry N was 3.
